T1: His-tagged mAKAP 1286-1833 (bacterially expressed) (UniProt Q9WVC7 1286-1833)
T1 chain: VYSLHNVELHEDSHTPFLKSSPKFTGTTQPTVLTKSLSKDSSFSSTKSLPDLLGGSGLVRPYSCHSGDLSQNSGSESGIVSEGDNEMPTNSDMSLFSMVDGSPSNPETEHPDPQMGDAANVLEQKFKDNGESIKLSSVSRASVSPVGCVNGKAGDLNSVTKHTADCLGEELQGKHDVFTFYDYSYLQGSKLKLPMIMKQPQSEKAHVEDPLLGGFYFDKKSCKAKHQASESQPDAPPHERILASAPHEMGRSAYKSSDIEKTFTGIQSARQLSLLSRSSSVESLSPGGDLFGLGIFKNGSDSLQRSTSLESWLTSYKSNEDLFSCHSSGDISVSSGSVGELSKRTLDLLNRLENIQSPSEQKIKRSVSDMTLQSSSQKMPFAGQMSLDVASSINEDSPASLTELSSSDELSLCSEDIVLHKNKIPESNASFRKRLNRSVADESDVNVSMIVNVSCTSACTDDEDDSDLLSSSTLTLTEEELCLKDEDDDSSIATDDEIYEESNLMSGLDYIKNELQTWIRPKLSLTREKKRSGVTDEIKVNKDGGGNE

T2: His-tagged mAKAP 1286-1833 (bacterially expressed) (UniProt Q9WVC7 1286-1833)
T2 construct: Covalently immobilised by amine coupling on a CM5 chip, 200 resonance units; not shown: His tag (pET30 parent vector)
T2 sequence (looked up): T1 chain

B1: His-tagged full-length RSK3, unphosphorylated (bacterially expressed) (enzyme)
chain: MDLSMKKFAVRRFFSVYLRRKSRSKSSSLSRLEEEGVVKEIDISHHVKEGFEKADPSQFELLKVLGQGSYGKVFLVRKVKGSDAGQLYAMKVLKKATLKVRDRVRSKMERDILAEVNHPFIVKLHYAFQTEGKLYLILDFLRGGDLFTRLSKEVMFTEEDVKFYLAELALALDHLHSLGIIYRDLKPENILLDEEGHIKITDFGLSKEAIDHDKRAYSFCGTIEYMAPEVVNRRGHTQSADWWSFGVLMFEMLTGSLPFQGKDRKETMALILKAKLGMPQFLSGEAQSLLRALFKRNPCNRLGAGIDGVEEIKRHPFFVTIDWNTLYRKEIKPPFKPAVGRPEDTFHFDPEFTARTPTDSPGVPPSANAHHLFRGFSFVASSLIQEPSQQDLHKVPVHPIVQQLHGNNIHFTDGYEIKEDIGVGSYSVCKRCVHKATDTEYAVKIIDKSKRDPSEEIEILLRYGQHPNIITLKDVYDDGKFVYLVMELMRGGELLDRILRQRYFSEREASDVLCTITKTMDYLHSQGVVHRDLKPSNILYRDESGSPESIRVCDFGFAKQLRAGNGLLMTPCYTANFVAPEVLKRQGYDAACDIWSLGILLYTMLAGFTPFANGPDDTPEEILARIGSGKYALSGGNWDSISDAAKDVVSKMLHVDPHQRLTAMQVLKHPWVVNREYLSPNQLSRQDVHLVKGAMAATYFALNRTPQAPRLEPVLSSNLAQRRGMKRLTSTRL
B2: ERK-phosphorylated His-RSK3 (enzyme)
chain: B1 chain
modifications: phosphorylated in vitro with ERK2; sites of this preparation not given
notes: also called Phospho-His-RSK3 (ERK2); not shown: His tag
B3: ERK and PDK1-phosphorylated His-RSK3 (enzyme)
chain: B1 chain
modifications: phosphorylated in vitro with ERK2 and PDK1; sites of this preparation not given
notes: also called Phospho-His-RSK3 (ERK2 and PDK1); not shown: His tag

Tests used:
[1] = molecular target: T1, His-tagged mAKAP 1286-1833 (bacterially …); experiment: SPR; unphosphorylated RSK3
[2] = molecular target: T2, His-tagged mAKAP 1286-1833 (bacterially …); experiment: SPR (BIAcore T100), His-mAKAP 1286-1833 immobilised, phospho-His-RSK3 as analyte
Excerpt: Figure 7: FIG. 7. The p90 ribosomal S6 kinase type 3 (RSK3) binding site within muscle A-kinase anchoring protein (mAKAP). A, mAKAP domain structure. […] All fragments are numbered per mAKAPα. The grey bar indicates the RSK3 binding site. B-F, Specific tag antibodies were used to immunoprecipitate myc-tagged mAKAPβ and HA-tagged p90 ribosomal S6 kinase (RSK) proteins (see FIG. 4A) co-expressed in either HEK293 (B) or COS-7 (C-F) cells (n=3) for all panels. G, Surface plasmon resonance using purified bacterially expressed proteins. […] Each curve was repeated 3 times using different protein preparations.
Surface Plasmon Resonance: SPR analysis was performed using a BIAcore T100. […] (Biacore amine coupling kit) to the surface of a sensor chip (BIAcore type CM5). His-RSK3 analytes (6.25-200 nmol/L) in HBS buffer (10 mmol/L Hepes, pH 7.4, 150 mmol/L NaCl, and 0.005% Surfactant P20) were injected at a flow rate of 30 μL/min for 5 minutes, followed by buffer alone for another 5 minutes. Sensorgrams were processed by BIAcore T100 evaluation software.

[3] = molecular target: T1, His-tagged mAKAP 1286-1833 (bacterially …); experiment: SPR; ERK-phosphorylated RSK3
[4] = molecular target: T1, His-tagged mAKAP 1286-1833 (bacterially …); experiment: SPR; ERK- and PDK1-phosphorylated RSK3

Row | Binder | Kd [1] | fold decrease in binding affinity against unphosphorylated RSK3 [2] | Kd [3] | Kd [4]
1 | B1 | 1.6 nM |  |  | 
2 | B2 |  | 5 fold | 7.3 nM | 
3 | B3 |  | 8 fold |  | 12.7 nM

— US9132174 (ANCHORED RSK3 INHIBITORS, dated 2015)
